Measurements reported in US20230002480A1.

Key:
Assay in all cases: cell-based or functional assay
[1] = target: HIV-1 Env of pseudovirus T251-18 (HIV-1)
[2] = target: HIV-1 Env of pseudovirus 3301.v1.c24 (HIV-1)
[3] = target: HIV-1 Env of pseudovirus 231966.c02 (HIV-1)
[4] = target: HIV-1 Env of pseudovirus R2184.c04 (HIV-1)
[5] = target: HIV-1 Env of pseudovirus 6811.v7.c18 (HIV-1)
[6] = target: HIV-1 Env of pseudovirus 89-F1_2_25 (HIV-1)
[7] = target: HIV-1 Env of pseudovirus 6545.v4.c1 (HIV-1)
[8] = target: HIV-1 Env of pseudovirus X1254_c3 (HIV-1)
[9] = target: HIV-1 Env of pseudovirus BJOX028000.10.3 (HIV-1)
[10] = target: HIV-1 Env of pseudovirus T250-4 (HIV-1)
[11] = target: HIV-1 Env of pseudovirus 6041.v3.c23 (HIV-1)
[12] = target: HIV-1 Env of pseudovirus 231965.c01 (HIV-1)
[13] = target: HIV-1 Env of pseudovirus T278-50 (HIV-1)
[14] = target: HIV-1 Env of pseudovirus P0402_c2_11 (HIV-1)

Question: How did the IC50 [1] turn out when N49P7.2 (antibody) was run?
Answer: Its IC50 is 0.222 µg/mL.

Question: What about the IC80 [1] of the same substance?
Answer: The IC80 was 0.741 µg/mL.

Question: And the MPI [1]?
Answer: The MPI was 100.

Question: And the IC50 [2]?
Answer: The IC50 was 0.05 µg/mL.

Question: And the IC80 [2]?
Answer: The IC80 was 0.137 µg/mL.

Question: And the MPI [2]?
Answer: The MPI was 100.

Question: And the IC50 [3]?
Answer: The IC50 was 0.233 µg/mL.

Question: And the IC80 [3]?
Answer: Its IC80 is 1.11 µg/mL.

Question: What about the MPI [3] of the same substance?
Answer: The MPI was 100.

Question: And the IC50 [4]?
Answer: Its IC50 is 0.02 µg/mL.

Question: What about the IC80 [4] of the same substance?
Answer: The IC80 was 0.047 µg/mL.

Question: What about the MPI [4] of the same substance?
Answer: The MPI was 100.

Question: And the IC50 [5]?
Answer: The IC50 was 0.541 µg/mL.

Question: And the IC80 [5]?
Answer: Its IC80 is 2.55 µg/mL.

Question: What about the MPI [5] of the same substance?
Answer: The MPI was 100.

Question: What about the IC50 [6] of the same substance?
Answer: Its IC50 is greater than 50 µg/mL.

Question: And the IC80 [6]?
Answer: Its IC80 is greater than 50 µg/mL.

Question: And the MPI [6]?
Answer: The MPI was 18.

Question: What about the IC50 [7] of the same substance?
Answer: The IC50 was greater than 50 µg/mL.

Question: What about the IC80 [7] of the same substance?
Answer: Its IC80 is greater than 50 µg/mL.

Question: And the MPI [7]?
Answer: The MPI was 4.

Question: And the IC50 [8]?
Answer: The IC50 was 27.5 µg/mL.

Question: What about the IC80 [8] of the same substance?
Answer: Its IC80 is greater than 50 µg/mL.

Question: What about the MPI [8] of the same substance?
Answer: The MPI was 53.

Question: What about the IC50 [9] of the same substance?
Answer: The IC50 was 0.322 µg/mL.

Question: And the IC80 [9]?
Answer: The IC80 was 1.49 µg/mL.

Question: And the MPI [9]?
Answer: Its MPI is 100.

Question: And the IC50 [10]?
Answer: The IC50 was greater than 50 µg/mL.

Question: What about the IC80 [10] of the same substance?
Answer: The IC80 was greater than 50 µg/mL.

Question: What about the MPI [10] of the same substance?
Answer: The MPI was 15.

Question: What about the IC50 [11] of the same substance?
Answer: The IC50 was 0.309 µg/mL.

Question: And the IC80 [11]?
Answer: Its IC80 is 5.11 µg/mL.

Question: What about the MPI [11] of the same substance?
Answer: The MPI was 94.

Question: What about the IC50 [12] of the same substance?
Answer: Its IC50 is 0.316 µg/mL.

Question: What about the IC80 [12] of the same substance?
Answer: Its IC80 is 1.06 µg/mL.

Question: And the MPI [12]?
Answer: The MPI was 100.

Question: And the IC50 [13]?
Answer: The IC50 was greater than 50 µg/mL.

Question: What about the IC80 [13] of the same substance?
Answer: The IC80 was greater than 50 µg/mL.

Question: And the MPI [13]?
Answer: Its MPI is 33.

Question: What about the IC50 [14] of the same substance?
Answer: The IC50 was 0.106 µg/mL.

Question: And the IC80 [14]?
Answer: The IC80 was 0.4 µg/mL.

Question: What about the MPI [14] of the same substance?
Answer: The MPI was 100.

Question: What does the source list for N49P18.1 (antibody)?
Answer: IC50 [1]: 23 µg/mL; IC80 [1]: > 50 µg/mL; MPI [1]: 70; IC50 [2]: 3.25 µg/mL; IC80 [2]: 11.3 µg/mL; MPI [2]: 99; IC50 [3]: 29.9 µg/mL; IC80 [3]: > 50 µg/mL; MPI [3]: 67; IC50 [4]: 3.38 µg/mL; IC80 [4]: 11.8 µg/mL; MPI [4]: 100; IC50 [5]: 7.43 µg/mL; IC80 [5]: 31.9 µg/mL; MPI [5]: 94; IC50 [6]: > 50 µg/mL; IC80 [6]: > 50 µg/mL; MPI [6]: 9; IC50 [7]: > 50 µg/mL; IC80 [7]: > 50 µg/mL; MPI [7]: 0; IC50 [8]: 24.8 µg/mL; IC80 [8]: > 50 µg/mL; MPI [8]: 61; IC50 [9]: 34 µg/mL; IC80 [9]: > 50 µg/mL; MPI [9]: 64; IC50 [10]: 4.86 µg/mL; IC80 [10]: 15.1 µg/mL; MPI [10]: 94; IC50 [11]: 3.05 µg/mL; IC80 [11]: 12.2 µg/mL; MPI [11]: 96; IC50 [12]: > 50 µg/mL; IC80 [12]: > 50 µg/mL; MPI [12]: 31; IC50 [13]: > 50 µg/mL; IC80 [13]: > 50 µg/mL; MPI [13]: 36; IC50 [14]: 5.47 µg/mL; IC80 [14]: 20.8 µg/mL; MPI [14]: 98

Question: N49P11 (antibody) was tested. Which IC50 [1] did it give?
Answer: Its IC50 is 3.05 µg/mL.

Question: What about the IC80 [1] of the same substance?
Answer: Its IC80 is 16.7 µg/mL.

Question: What about the MPI [1] of the same substance?
Answer: The MPI was 100.

Question: And the IC50 [2]?
Answer: The IC50 was 1.98 µg/mL.

Question: And the IC80 [2]?
Answer: Its IC80 is 15.7 µg/mL.

Question: And the MPI [2]?
Answer: The MPI was 100.

Question: And the IC50 [3]?
Answer: Its IC50 is 4.31 µg/mL.

Question: And the IC80 [3]?
Answer: Its IC80 is 16 µg/mL.

Question: What about the MPI [3] of the same substance?
Answer: The MPI was 100.

Question: What about the IC50 [4] of the same substance?
Answer: Its IC50 is 0.034 µg/mL.

Question: What about the IC80 [4] of the same substance?
Answer: Its IC80 is 0.12 µg/mL.

Question: What about the MPI [4] of the same substance?
Answer: Its MPI is 100.

Question: What about the IC50 [5] of the same substance?
Answer: Its IC50 is 3.68 µg/mL.

Question: What about the IC80 [5] of the same substance?
Answer: The IC80 was 14.6 µg/mL.

Question: And the MPI [5]?
Answer: The MPI was 100.

Question: And the IC50 [6]?
Answer: Its IC50 is 4.24 µg/mL.

Question: And the IC80 [6]?
Answer: Its IC80 is 16.6 µg/mL.

Question: And the MPI [6]?
Answer: The MPI was 100.

Question: What about the IC50 [7] of the same substance?
Answer: The IC50 was 6.47 µg/mL.

Question: And the IC80 [7]?
Answer: The IC80 was 22.9 µg/mL.

Question: What about the MPI [7] of the same substance?
Answer: Its MPI is 100.

Question: What about the IC50 [8] of the same substance?
Answer: The IC50 was 5.99 µg/mL.

Question: What about the IC80 [8] of the same substance?
Answer: The IC80 was 20.7 µg/mL.

Question: And the MPI [8]?
Answer: The MPI was 100.

Question: And the IC50 [9]?
Answer: The IC50 was 5.33 µg/mL.

Question: And the IC80 [9]?
Answer: Its IC80 is 46.7 µg/mL.

Question: What about the MPI [9] of the same substance?
Answer: The MPI was 100.

Question: And the IC50 [10]?
Answer: The IC50 was 6.28 µg/mL.

Question: What about the IC80 [10] of the same substance?
Answer: Its IC80 is 25.6 µg/mL.

Question: And the MPI [10]?
Answer: Its MPI is 100.

Question: And the IC50 [11]?
Answer: Its IC50 is 4.42 µg/mL.

Question: And the IC80 [11]?
Answer: The IC80 was 17.6 µg/mL.

Question: What about the MPI [11] of the same substance?
Answer: The MPI was 100.

Question: What about the IC50 [12] of the same substance?
Answer: Its IC50 is 9.78 µg/mL.

Question: What about the IC80 [12] of the same substance?
Answer: Its IC80 is 24.2 µg/mL.

Question: What about the MPI [12] of the same substance?
Answer: Its MPI is 100.

Question: What about the IC50 [13] of the same substance?
Answer: The IC50 was 7.63 µg/mL.

Question: And the IC80 [13]?
Answer: The IC80 was 25.1 µg/mL.

Question: What about the MPI [13] of the same substance?
Answer: The MPI was 100.

Question: What about the IC50 [14] of the same substance?
Answer: The IC50 was 0.091 µg/mL.

Question: What about the IC80 [14] of the same substance?
Answer: Its IC80 is 0.698 µg/mL.

Question: What about the MPI [14] of the same substance?
Answer: The MPI was 100.
